The values that follow come from publication PMC11623273, “Epitope-focused immunogens targeting the hepatitis C virus glycoproteins induce broadly neutralizing antibodies” (Science Advances, 2024).

The target of experiment [1] is T1, E1_S1 (design 1W4K_08), epitope scaffold presenting the HCV E1 epitope (residues 314-324) (designed scaffold from Pyrobaculum …).
T1 chain: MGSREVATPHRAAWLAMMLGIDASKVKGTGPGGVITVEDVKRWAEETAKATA

Experiment [2] deals with T2, E2_S2_1 (design 2K6Z_01), epitope scaffold presenting HCV E2 epitope I.
T2 chain: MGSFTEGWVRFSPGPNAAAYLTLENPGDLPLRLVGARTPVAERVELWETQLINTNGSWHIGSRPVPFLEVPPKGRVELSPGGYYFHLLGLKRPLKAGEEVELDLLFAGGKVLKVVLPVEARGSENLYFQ
The following applies: both partners purified.

The target of experiment [3] is E2_S3_3 (design 4CIL_03), epitope scaffold presenting HCV E2 epitope I. The following applies: both partners purified.
Experiment [4] deals with T1, E1_S1 (design 1W4K_08), epitope …. The experiment in a line: grating-coupled interferometry (GCI, Creoptix WAVE). As to conditions: both partners purified.

B1: N15 (antibody, V domains shown)
VH: QVQLVESGGGVVQPGRSLRLSCAASGFTFSSYVMHWVRQAPGKGLEWVAVISYDGSNKYYADSVKGRFTISRDNSKNTLYLQMNSLRAEDTAVYYCARAPLYDILSDYWGQGTLVTVSS
VL: QLVLTQSPSASASLGASVKLTCTLSSGHSSYAIAWHQQQPEKGPRYLMKLNSDGSHSKGDGIPDRFSGSSSGAERYLTISSLQSEDEADYYCQTWGTGIVVFGGGTKLTVL
Take B1: the binding result in experiment [1] is listed as “binds”.

B2: Fab fragment of neutralizing antibody HCV1 (Fab, V domains shown)
VH: EVQLLESGGGVVQPGRSLRLSCTASGFTFNNYGMHWVRQTPGKGLEWLAVIWFDENNKYYADSVRGRFTISRDNSKNTLFLQMNSLKTEDTAMYYCARDISLVRDAFIYFDFWGLGTLVTVSS
VL: ELTLTQSPATLSLSPGERATLSCRASQSVSSYLAWYQQKPGQAPRLLIYDASNRATGIPARFSGSGSGTDFTLTISSLEPEDFAVYYCQQRSNWITFGQGTRLEIK
notes: also called Fab HCV1; F(ab) HCV1
For the molecule B2, in experiment [2], binding was put at a Kd of 23 nM; the dissociation rate constant (koff) (usually the rate constant with which the complex falls apart) was found to be 0.00121 s⁻¹; the kon (in general, the rate constant with which the complex forms) is 52700 M⁻¹ s⁻¹. Besides, in experiment [3], binding was put at a Kd of 2.8 nM, the off-rate constant (koff) came out at 0.000369 s⁻¹ and the on-rate (kon) was found to be 133000 M⁻¹ s⁻¹.

B3: Fab fragment of neutralizing antibody IGH526 (Fab, V domains shown)
VH: VQLLEQSGAEVKRPGASVKVSCKASGYTFTSYAIHWVRQAPGQRLEWMGWINPGNGNAKYSQRFQGRVIISRDTSATTSYMELSSLTSEDTAVYSCARDRGFDLLTGHYLGLDPWGQGTLVTVSS
VL: ELTLTQPASASATPGQRVTISCSGSSSNIGGNTVNWYQHLPGAAPKLLIHNNDLRPSGVPDRFSGSKSGTSASLAVSGLQSEDEADYFCAAWDDGLNGWVFGGGTKLTVL
As for B3, in experiment [4], the equilibrium dissociation constant (Kd) (commonly the equilibrium constant for the complex coming apart) turned out to be 1.4 nM, the koff was determined as 0.00181 s⁻¹ and the kon was 1.32e+06 M⁻¹ s⁻¹.
